Assay results from the DeepSol protein solubility set.

Assay: soluble on expression in E. coli; label from the status in PepcDB or PDB records

For “MGSDKIHHHHHHMFYQLYEMNHAMMAPWRTAADAMRLAFSNPMNPVSHTYFGRAAAAGLEVFERATRRYGKPEFGLPETEIDGQPVPVRERIVWREPFCNLIHFERSLPRDRAPDPKVLIVAPMSGHYATLLRGTVEALLPHSDVYITDWIDARMVPLSEGTFDLDDYIDYVIQMLHFLGPDAHVIGVCQPAVPVLAAVALMEAAEDPLAPSTMTLMGGPIDTRINPTAVNELAKERPIEWFRDNVVMPVPWPQPGFMRMVYPGFLQLSGFMSMNLDRHLIAHKEFFAHLVKNDGDAAEKHRDFYDEYLAVMDLTAEFYLQTVQVVFMQHALPKGEMIHRGKRVDPTAIRRVALLTVEGENDDISGLGQTKAAQTICTGIPDSMRQHYMQPDVGHYGVFNGSRFRREIAPRIVAFQRRHSRHAKPVKQLIKGGKSA”, which “soluble on expression in E. coli” value is on record?
The value was “not soluble”.

Which “soluble on expression in E. coli” value does the source give for “MKMAKSEDERLAEEWAAALGEDPNAPDIDVDEILAAPLEELKNTAPPITDDERRKLDTIMDIPVTISMEVGRSKISIRNLLQLNQGSVVELDRIAGESLDVMVNGTLIAHGEVVVVNDKFGIRLTDVISQTERIKKLR” here?
The value was “not soluble”.

With “MDKIKVGLQYWIPQHALTRLVGKLASARAGSLTTAIIRWFIKQYNVNMDEALHSDPTHFKTFNEFFVRELKAGVRPIAEGEKVITHPADACVSQFGAIEYGKLIQAKGHTYSAQELLGGDAKLAEEFRDGDFATLYLSPRDYHRVHMPCDGTLRQMIYVPGDLFSVNPLTAENVPNLFARNERVVCIFDTEFGPMAQVLVGATIVGSIELVWAGTVTPPRGNTVYRWDYPANGNQAVVLKKGEEMGRFKLGSTVINLFAKQAIRFDDSMALGAPTRMGEPYAHQA” as the sequence, how does the “soluble on expression in E. coli” value read?
The value was “soluble”.

With “MRADGRSSCELRPVHIHPHYMKHAEGSVLIEIGDTKVICTATVEEKVPSFMRGGGKGWITAEYGMLPRATEQRNVREASKGKVSGRTMEIQRLIGRALRSVVDLEQLGERTIWIDCDVIQADGGTRTASITGAYVALVLALAKLVEEGKLEALPIRDFLAATSVGIDPEHGVILDLDYNEDARAKVDMNVVMTGAGQFVEIQGTGEEAVFSRAELDELLEAAQIGIEQLIAVQRRALGEWAARIGEKKEAAEEDTE” as the sequence, how does the “soluble on expression in E. coli” value read?
The value was “not soluble”.

Which “soluble on expression in E. coli” value does the source give for “MSLQSDMLAQSDMLACREMIKEGSHTFHAASKVLPRRISDPAIALYAFCRVADDAVDLGLDRAAAVELLKDRLDRACRGVPRAYPSDRAFADVVARFSIPPAIPEALIEGLEWDAQGRRFETLSDLYSYCARVAGTVGVMMTLVMGQRKPDIVARACDLGCAMQLTNIARDIGEDARNGRIYMPLSWMREAGLDPETWLANPKFTPEIASIVKRLIDTADALYDRATLGIANLPRSCRPGIFAARALYAEIGREVERSGLDSVSSRAVVSTGRKLAVLARLLAFQETEWAPAKYLPAKFGDMEETKFLVDAVIAHPVREGHHHHHH” here?
The value was “soluble”.

With “MARPQSKKKQTQVARRPRRRGRWVPPSRLIAGRDFPEFLRQAVLLSGSLRQAARKLRVSYSTLRGWLGRRCEEPPEGERDLLAGHVAAIRTELDVAAEHLAIVRGQLDALERGDDG” as the sequence, how does the “soluble on expression in E. coli” value read?
The value was “not soluble”.

For “MGSDKIHHHHHHACEQNEDWVVNEPMQSFEENPEYAPLNTIPDWVSEKVTPKEYELWRTMSSRYEINYSFLKKDISEKRKKEIYDCINNICERIEKGQINKYEGFLNIADEDGTTLSDSQYFGRIATRSPEGGAEYKTNGCTLYTHSLGPYIKAAVTYKKSDDDVTITSSSVYTGSPYLGNDPSFSGASSVSYDKDKKLIAASCSGTLSFKDGSRKVEVTVQKTGFMIP”, which “soluble on expression in E. coli” value is on record?
The value was “not soluble”.

With “MKVIGINGSPRRAGNTSIMLKTIFEVLEDEGIETELIQVGGTNIKGCRACYACIKNKNSECSTKGDGFNEIFAKMVEADGMILGSPTYFADITPELKALIDRAGFVSRTNGQLFRHKVGASVVSLRRGGGIHAYDSINHLFQICQMFMVGSTYWNLGFGGRDGGEVVNDTEGMENMRDLGHSMAFLLKKLHNLEHHHHHH” as the sequence, how does the “soluble on expression in E. coli” value read?
Its value is “not soluble”.
